According to US20090018099:

How the values were obtained:
[1] = target: recombinant GST-Flag-CERT-S132A(1-138) fusion protein, produced in E. coli [GST: P08515]
[2] = target: recombinant GST-Flag-CERT(1-138) wild type fusion protein, produced in E. coli [GST: P08515]

B1: purified PKD1 (protein)
chain: MSAPPVLRPPSPLLPVAAAAAAAAAALVPGSGPGPAPFLAPVAAPVGGISFHLQIGLSREPVLLLQDSSGDYSLAHVREMACSIVDQKFPECGFYGMYDKILLFRHDPTSENILQLVKAASDIQEGDLIEVVLSASATFEDFQIRPHALFVHSYRAPAFCDHCGEMLWGLVRQGLKCEGCGLNYHKRCAFKIPNNCSGVRRRRLSNVSLTGVSTIRTSSAELSTSAPDEPLLQKSPSESFIGREKRSNSQSYIGRPIHLDKILMSKVKVPHTFVIHSYTRPTVCQYCKKLLKGLFRQGLQCKDCRFNCHKRCAPKVPNNCLGEVTINGDLLSPGAESDVVMEEGSDDNDSERNSGLMDDMEEAMVQDAEMAMAECQNDSGEMQDPDPDHEDANRTISPSTSNNIPLMRVVQSVKHTKRKSSTVMKEGWMVHYTSKDTLRKRHYWRLDSKCITLFQNDTGSRYYKEIPLSEILSLEPVKTSALIPNGANPHCFEITTANVVYYVGENVVNPSSPSPNNSVLTSGVGADVARMWEIAIQHALMPVIPKGSSVGTGTNLHRDISVSISVSNCQIQENVDISTVYQIFPDEVLGSGQFGIVYGGKHRKTGRDVAIKIIDKLRFPTKQESQLRNEVAILQNLHHPGVVNLECMFETPERVFVVMEKLHGDMLEMILSSEKGRLPEHITKFLITQILVALRHLHFKNIVHCDLKPENVLLASADPFPQVKLCDFGFARIIGEKSFRRSVVGTPAYLAPEVLRNKGYNRSLDMWSVGVIIYVSLSGTFPFNEDEDIHDQIQNAAFMYPPNPWKEISHEAIDLINNLLQVKMRKRYSVDKTLSHPWLQDYQTWLDLRELECKIGERYITHESDDLRWEKYAGEQGLQYPTHLINPSASHSDTPETEETEMKALGERVSIL
- incorporation of radioactivity (in vitro kinase assay with [gamma-32P]-ATP, PhosphoImager) [1]: This is significantly impaired in the case of the CERT-S132A fusion protein
- incorporation of radioactivity (in vitro kinase assay with [gamma-32P]-ATP, PhosphoImager) [2]: incorporation of radioactivity is detected
